The record followed here is article PMC9038204 (PLoS Biology, 2022).

To fix the notation:
B3: isolated FERM domain of human SNX27 (domain or fragment, UniProt Q96L92 269-531, looked up)
chain: YNGVSDVELRVALPDGTTVTVRVKKNSTTDQVYQAIAAKVGMDSTTVNYFALFEVISHSFVRKLAPNEFPHKLYIQNYTSAVPGTCLTIRKWLFTTEEEILLNDNDLAVTYFFHQAVDDVKKGYIKAEEKSYQLQKLYEQRKMVMYLNMLRTCEGYNEIIFPHCACDSRRKGHVITAISITHFKLHACTEEGQLENQVIAFEWDEMQRWDTDEEGMAFCFEYARGEKKPRWVKIFTPYFNYMHECFERVFCELKWRKENIFQM
notes: FERM domain of human SNX27; pET-28a, TEV site between His-tag and SNX27; also called hSNX27_(FERM); source: E. coli BL21 (DE3), purified (TALON or Ni-NTA, SEC, Mono Q)

What all share (conditions): both partners purified
Test [1] deals with T1, full-length mouse SNX27 (mouse, UniProt Q3UHD6 1-539).
T1 construct: sorting nexin-27 (SNX27), mouse; also called mSNX27FL
The test can be described thus: ITC; 800 μM SNX1 or SNX2 peptide titrated into 20 μM mSNX27FL; 25°C; 50 mM HEPES pH 7.5, 200 mM NaCl, 5% glycerol, 1 mM β-ME with 1:10 peptide buffer (100 mM Tris-HCl pH 10.6); single-site model. (In ITC the heat of successive injections is recorded.)

Test [2] concerns the target T2, full-length mouse SNX1 with an amino-terminal His-tag (mouse, UniProt Q9WV80 1-522).
T2 construct: sorting nexin-1 (SNX1), mouse; vector pMW172Kan; also called mSNX1FL; His-SNX1FL; source: E. coli BL21 CodonPlus (DE3), purified (TALON or Ni-NTA, SEC); not shown: His-tag, N-terminal, kept
Kind of test: ITC; 800 μM hSNX27 FERM titrated into 20 μM GST-mSNX1(1-139) or His-SNX1FL; 25°C; 50 mM HEPES pH 7.5, 200 mM NaCl, 5% glycerol, 1 mM β-ME; single-site model.

Test [3] addresses T3, full-length mouse SNX27 (mouse, UniProt Q3UHD6 1-539).
T3 construct: sorting nexin-27 (SNX27), mouse, full length; pMCSG7 vector by ligation-independent cloning; also called mSNX27FL
The test can be described thus: ITC; 800 μM hSNX1 or hSNX2 peptide (syringe) titrated into 20 μM mSNX27FL (cell); 25°C; 50 mM HEPES pH 7.5, 200 mM NaCl, 5% glycerol, 1 mM β-ME with 1:10 peptide buffer (100 mM Tris-HCl pH 10.6); single-site model.

Test [4] deals with T4, full-length human SNX27, wild type (human, UniProt Q96L92 1-541).
T4 construct: sorting nexin-27 (SNX27), human, full length; also called hSNX27FL; hSNX27 WT
The test can be described thus: ITC; 600 μM hSNX1(75-92) peptide (syringe) titrated into 20 μM hSNX27FL wild type or single-site mutant (cell); 25°C; 50 mM HEPES pH 7.5, 200 mM NaCl, 5% glycerol, 1 mM β-ME; single-site model.

In test [5] the target is T5, human SNX27 K496D (human, UniProt Q96L92 1-541, K496D).
T5 construct: human SNX27 single-site mutant; printed as R496D in the text and as K496D in the legend and the methods; also called hSNX27 K496D; SNX27(R496D); source: E. coli BL21 (DE3), purified (TALON or Ni-NTA, SEC)
Kind of test: ITC; 600 μM SNX1 75-92 peptide titrated into 20 μM hSNX27 wild-type or single-site mutant; 25°C; 50 mM HEPES pH 7.5, 200 mM NaCl, 5% glycerol, 1 mM β-ME; single-site model.

Test [6] deals with T6, full-length human SNX27, wild-type (human, UniProt Q96L92 1-541).
T6 construct: sorting nexin-27 (SNX27), human; pET-28a, TEV site between His-tag and SNX27; also called hSNX27FL; hSNX27 WT; source: E. coli BL21 (DE3), purified (TALON or Ni-NTA, SEC)
Described as above.

The target of test [7] is B3. Kind of test: ITC; 800 μM hSNX27 FERM titrated into 20 μM GST-mSNX1(1-139) or His-SNX1FL; 25°C; 50 mM HEPES pH 7.5, 200 mM NaCl, 5% glycerol, 1 mM β-ME; single-site model.

What is called Kd is the equilibrium constant for the complex coming apart. A low value points to higher affinity.

B1: SNX2_(16-33) peptide (peptide)
peptide: TDFEDLEDGEDLFTSTVS
notes: human SNX2 residues 16 to 33; also called first aDLF motif of SNX2; source: synthetic peptide (Genscript)
As for B1, binding in test [1] was put at a Kd of 37.8 µM.

B2: SNX2_(62-82) peptide (peptide)
peptide: TEVVLDDDREDLFAEATEEVS
notes: human SNX2 residues 62 to 82; also called second aDLF motif of SNX2; source: synthetic peptide (Genscript)
B2: the Kd in test [1] stood at 22.6 µM. Molecule B3 gave a Kd in test [2] of 41 µM.

B4: human SNX1 peptide, residues 75-92 (second aDLF motif) (peptide)
peptide: NGIHEEQDQEPQDLFADA
notes: sorting nexin-1 (SNX1), human, residues 75 to 92; also called hSNX1 75-92; SNX1_(75-92); source: synthetic peptide (Genscript)
Consider B4, for which the dissociation constant Kd came out at 13.4 ± 0.75 µM in test [3] and 12.8 ± 0.47 µM in test [4].

B5: SNX1_(75-92) peptide (peptide)
peptide: NGIHEEQDQEPQDLFADA
notes: human SNX1 residues 75 to 92; also called second aDLF motif of human SNX1; source: synthetic peptide (Genscript)
As for B5, the results for the Kd in test [1], in test [5] and in test [6] were 13.3 µM, 56.4 µM and 12.7 µM, respectively.

B6: GST-mSNX1(1-139) (domain or fragment, mouse, UniProt Q9WV80 1-139, looked up)
chain: MASGGGGCSASERLPPPFPGMDPESEGAAGASEPEAGDSDTEGEDIFTGAAAATKPQSPKKTTSLFPIKNGSKENGIHEDQDQEPQDLFADATVELSLDSTQNNQKTMPGKTLTSHSPQEATNSPKPQPSYEELEEEEQ
notes: mouse SNX1 residues 1 to 139; vector pGEX4T-2, thrombin-cleavable GST; eluted with glutathione and named GST-mSNX1(1-139) in the ITC; also called amino-terminal extension of mouse SNX1; source: E. coli BL21 CodonPlus (DE3), purified (glutathione Sepharose, SEC); not shown: GST, N-terminal, kept
On to B6, for which the Kd in test [7] is 39.1 µM.

B7: human SNX1 peptide, residues 35-51 (first aDLF motif) (peptide)
peptide: EAGDSDTEGEDIFTGAA
notes: sorting nexin-1 (SNX1), human, residues 35 to 51; also called hSNX1 35-51; SNX1_(35-51); source: synthetic peptide (Genscript)
In the case of B7, in test [3], the affinity, expressed as Kd, was 33.4 ± 1.89 µM.

B8: SNX1_(35-51) peptide (peptide)
peptide: EAGDSDTEGEDIFTGAA
notes: human SNX1 residues 35 to 51; also called first aDLF motif of human SNX1; source: synthetic peptide (Genscript)
On to B8, for which the affinity in test [1], expressed as Kd, was 33.4 µM.

B9: human SNX2 peptide, residues 62-82 (second aDLF motif) (peptide)
peptide: TEVVLDDDREDLFAEATEEVS
notes: sorting nexin-2 (SNX2), human, residues 62 to 82; also called hSNX2 62-82; SNX2_(62-82); source: synthetic peptide (Genscript)
Regarding B9, binding in test [3] was characterised by a dissociation constant (Kd) of 22.6 ± 1.89 µM.
